Experimental data as given in patent publication US20230416330A1, “Optimized GIP Peptide Analogues” (Antag Therapeutics ApS, priority 2019, published 2023).
Starred links: 1 amine or outer side, 2 acyl side, 3 side chain; linkers in the order of their positions; H or OH if unused. Non-standard residues stand in square brackets, D forms with d. Groups on a side chain read outwards from the residue. No end group written: not given here. *: point of attachment. C18 diacid = O=C(O)CCCCCCCCCCCCCCCCC(=O)*; C16 diacid = O=C(O)CCCCCCCCCCCCCCC(=O)*; γGlu = O=C(O)[C@H](CCC(=O)[*:2])N[*:1]; Glutaryl = O=C(CCCC(=O)[*:2])[*:1]; Nle = CCCC[C@H](N)C(=O)O; AEEA = NCCOCCOCC(=O)O; Aib = CC(C)(N)C(=O)O

B1: AT708 (peptide)
peptide: Glutaryl-GTFISEYSI[Aib]MEKIK([AEEA-AEEA-γGlu-C18 diacid])QQEFVEWLLAQKPSSGAPPPS-OH
SMILES: CC[C@H](C)[C@H](NC(=O)[C@H](CCCCN)NC(=O)[C@H](CCC(=O)O)NC(=O)[C@H](CCSC)NC(=O)C(C)(C)NC(=O)[C@@H](NC(=O)[C@H](CO)NC(=O)[C@H](Cc1ccc(O)cc1)NC(=O)[C@H](CCC(=O)O)NC(=O)[C@H](CO)NC(=O)[C@@H](NC(=O)[C@H](Cc1ccccc1)NC(=O)[C@@H](NC(=O)CNC(=O)CCCC(=O)O)[C@@H](C)O)[C@@H](C)CC)[C@@H](C)CC)C(=O)N[C@@H](CCCCNC(=O)COCCOCCNC(=O)COCCOCCNC(=O)CC[C@H](NC(=O)CCCCCCCCCCCCCCCCC(=O)O)C(=O)O)C(=O)N[C@@H](CCC(N)=O)C(=O)N[C@@H](CCC(N)=O)C(=O)N[C@@H](CCC(=O)O)C(=O)N[C@@H](Cc1ccccc1)C(=O)N[C@H](C(=O)N[C@@H](CCC(=O)O)C(=O)N[C@@H](Cc1c[nH]c2ccccc12)C(=O)N[C@@H](CC(C)C)C(=O)N[C@@H](CC(C)C)C(=O)N[C@@H](C)C(=O)N[C@@H](CCC(N)=O)C(=O)N[C@@H](CCCCN)C(=O)N1CCC[C@H]1C(=O)N[C@@H](CO)C(=O)N[C@@H](CO)C(=O)NCC(=O)N[C@@H](C)C(=O)N1CCC[C@H]1C(=O)N1CCC[C@H]1C(=O)N1CCC[C@H]1C(=O)N[C@@H](CO)C(=O)O)C(C)C
B2: AT755 (peptide)
peptide: Glutaryl-GTFISEYSI[Aib][Nle]EKIK(C16 diacid)QQEFVEWLLAQKPSSGAPPPS-OH
SMILES: CCCC[C@H](NC(=O)C(C)(C)NC(=O)[C@@H](NC(=O)[C@H](CO)NC(=O)[C@H](Cc1ccc(O)cc1)NC(=O)[C@H](CCC(=O)O)NC(=O)[C@H](CO)NC(=O)[C@@H](NC(=O)[C@H](Cc1ccccc1)NC(=O)[C@@H](NC(=O)CNC(=O)CCCC(=O)O)[C@@H](C)O)[C@@H](C)CC)[C@@H](C)CC)C(=O)N[C@@H](CCC(=O)O)C(=O)N[C@@H](CCCCN)C(=O)N[C@H](C(=O)N[C@@H](CCCCNC(=O)CCCCCCCCCCCCCCC(=O)O)C(=O)N[C@@H](CCC(N)=O)C(=O)N[C@@H](CCC(N)=O)C(=O)N[C@@H](CCC(=O)O)C(=O)N[C@@H](Cc1ccccc1)C(=O)N[C@H](C(=O)N[C@@H](CCC(=O)O)C(=O)N[C@@H](Cc1c[nH]c2ccccc12)C(=O)N[C@@H](CC(C)C)C(=O)N[C@@H](CC(C)C)C(=O)N[C@@H](C)C(=O)N[C@@H](CCC(N)=O)C(=O)N[C@@H](CCCCN)C(=O)N1CCC[C@H]1C(=O)N[C@@H](CO)C(=O)N[C@@H](CO)C(=O)NCC(=O)N[C@@H](C)C(=O)N1CCC[C@H]1C(=O)N1CCC[C@H]1C(=O)N1CCC[C@H]1C(=O)N[C@@H](CO)C(=O)O)C(C)C)[C@@H](C)CC
B3: AT706 (peptide)
peptide: Glutaryl-GTFISEYSI[Aib][Nle]EKIK([AEEA-AEEA-γGlu-C18 diacid])QQEFVEWLLAQKPSSGAPPPS-OH
SMILES: CCCC[C@H](NC(=O)C(C)(C)NC(=O)[C@@H](NC(=O)[C@H](CO)NC(=O)[C@H](Cc1ccc(O)cc1)NC(=O)[C@H](CCC(=O)O)NC(=O)[C@H](CO)NC(=O)[C@@H](NC(=O)[C@H](Cc1ccccc1)NC(=O)[C@@H](NC(=O)CNC(=O)CCCC(=O)O)[C@@H](C)O)[C@@H](C)CC)[C@@H](C)CC)C(=O)N[C@@H](CCC(=O)O)C(=O)N[C@@H](CCCCN)C(=O)N[C@H](C(=O)N[C@@H](CCCCNC(=O)COCCOCCNC(=O)COCCOCCNC(=O)CC[C@H](NC(=O)CCCCCCCCCCCCCCCCC(=O)O)C(=O)O)C(=O)N[C@@H](CCC(N)=O)C(=O)N[C@@H](CCC(N)=O)C(=O)N[C@@H](CCC(=O)O)C(=O)N[C@@H](Cc1ccccc1)C(=O)N[C@H](C(=O)N[C@@H](CCC(=O)O)C(=O)N[C@@H](Cc1c[nH]c2ccccc12)C(=O)N[C@@H](CC(C)C)C(=O)N[C@@H](CC(C)C)C(=O)N[C@@H](C)C(=O)N[C@@H](CCC(N)=O)C(=O)N[C@@H](CCCCN)C(=O)N1CCC[C@H]1C(=O)N[C@@H](CO)C(=O)N[C@@H](CO)C(=O)NCC(=O)N[C@@H](C)C(=O)N1CCC[C@H]1C(=O)N1CCC[C@H]1C(=O)N1CCC[C@H]1C(=O)N[C@@H](CO)C(=O)O)C(C)C)[C@@H](C)CC
B4: AT707 (peptide)
peptide: Glutaryl-GTFISEYSIALEKIK([AEEA-AEEA-γGlu-C18 diacid])QQEFVEWLLAQKPSSGAPPPS-OH
SMILES: CC[C@H](C)[C@H](NC(=O)[C@H](CO)NC(=O)[C@H](Cc1ccc(O)cc1)NC(=O)[C@H](CCC(=O)O)NC(=O)[C@H](CO)NC(=O)[C@@H](NC(=O)[C@H](Cc1ccccc1)NC(=O)[C@@H](NC(=O)CNC(=O)CCCC(=O)O)[C@@H](C)O)[C@@H](C)CC)C(=O)N[C@@H](C)C(=O)N[C@@H](CC(C)C)C(=O)N[C@@H](CCC(=O)O)C(=O)N[C@@H](CCCCN)C(=O)N[C@H](C(=O)N[C@@H](CCCCNC(=O)COCCOCCNC(=O)COCCOCCNC(=O)CC[C@H](NC(=O)CCCCCCCCCCCCCCCCC(=O)O)C(=O)O)C(=O)N[C@@H](CCC(N)=O)C(=O)N[C@@H](CCC(N)=O)C(=O)N[C@@H](CCC(=O)O)C(=O)N[C@@H](Cc1ccccc1)C(=O)N[C@H](C(=O)N[C@@H](CCC(=O)O)C(=O)N[C@@H](Cc1c[nH]c2ccccc12)C(=O)N[C@@H](CC(C)C)C(=O)N[C@@H](CC(C)C)C(=O)N[C@@H](C)C(=O)N[C@@H](CCC(N)=O)C(=O)N[C@@H](CCCCN)C(=O)N1CCC[C@H]1C(=O)N[C@@H](CO)C(=O)N[C@@H](CO)C(=O)NCC(=O)N[C@@H](C)C(=O)N1CCC[C@H]1C(=O)N1CCC[C@H]1C(=O)N1CCC[C@H]1C(=O)N[C@@H](CO)C(=O)O)C(C)C)[C@@H](C)CC
B5: AT705 (peptide)
peptide: Glutaryl-GTFISEYSI[Aib]LEKIK([AEEA-AEEA-γGlu-C18 diacid])QQEFVEWLLAQKPSSGAPPPS-OH
SMILES: CC[C@H](C)[C@H](NC(=O)[C@H](CCCCN)NC(=O)[C@H](CCC(=O)O)NC(=O)[C@H](CC(C)C)NC(=O)C(C)(C)NC(=O)[C@@H](NC(=O)[C@H](CO)NC(=O)[C@H](Cc1ccc(O)cc1)NC(=O)[C@H](CCC(=O)O)NC(=O)[C@H](CO)NC(=O)[C@@H](NC(=O)[C@H](Cc1ccccc1)NC(=O)[C@@H](NC(=O)CNC(=O)CCCC(=O)O)[C@@H](C)O)[C@@H](C)CC)[C@@H](C)CC)C(=O)N[C@@H](CCCCNC(=O)COCCOCCNC(=O)COCCOCCNC(=O)CC[C@H](NC(=O)CCCCCCCCCCCCCCCCC(=O)O)C(=O)O)C(=O)N[C@@H](CCC(N)=O)C(=O)N[C@@H](CCC(N)=O)C(=O)N[C@@H](CCC(=O)O)C(=O)N[C@@H](Cc1ccccc1)C(=O)N[C@H](C(=O)N[C@@H](CCC(=O)O)C(=O)N[C@@H](Cc1c[nH]c2ccccc12)C(=O)N[C@@H](CC(C)C)C(=O)N[C@@H](CC(C)C)C(=O)N[C@@H](C)C(=O)N[C@@H](CCC(N)=O)C(=O)N[C@@H](CCCCN)C(=O)N1CCC[C@H]1C(=O)N[C@@H](CO)C(=O)N[C@@H](CO)C(=O)NCC(=O)N[C@@H](C)C(=O)N1CCC[C@H]1C(=O)N1CCC[C@H]1C(=O)N1CCC[C@H]1C(=O)N[C@@H](CO)C(=O)O)C(C)C
B6: AT712 (peptide)
peptide: EGTFISEYSI[Aib]LDKIK([AEEA-AEEA-γGlu-C18 diacid])QQDFVEWLLAQKPSSGAPPPS-OH
modifications: N-terminus assumed
SMILES: CC[C@H](C)[C@H](NC(=O)[C@H](CCCCN)NC(=O)[C@H](CC(=O)O)NC(=O)[C@H](CC(C)C)NC(=O)C(C)(C)NC(=O)[C@@H](NC(=O)[C@H](CO)NC(=O)[C@H](Cc1ccc(O)cc1)NC(=O)[C@H](CCC(=O)O)NC(=O)[C@H](CO)NC(=O)[C@@H](NC(=O)[C@H](Cc1ccccc1)NC(=O)[C@@H](NC(=O)CNC(=O)[C@@H](N)CCC(=O)O)[C@@H](C)O)[C@@H](C)CC)[C@@H](C)CC)C(=O)N[C@@H](CCCCNC(=O)COCCOCCNC(=O)COCCOCCNC(=O)CC[C@H](NC(=O)CCCCCCCCCCCCCCCCC(=O)O)C(=O)O)C(=O)N[C@@H](CCC(N)=O)C(=O)N[C@@H](CCC(N)=O)C(=O)N[C@@H](CC(=O)O)C(=O)N[C@@H](Cc1ccccc1)C(=O)N[C@H](C(=O)N[C@@H](CCC(=O)O)C(=O)N[C@@H](Cc1c[nH]c2ccccc12)C(=O)N[C@@H](CC(C)C)C(=O)N[C@@H](CC(C)C)C(=O)N[C@@H](C)C(=O)N[C@@H](CCC(N)=O)C(=O)N[C@@H](CCCCN)C(=O)N1CCC[C@H]1C(=O)N[C@@H](CO)C(=O)N[C@@H](CO)C(=O)NCC(=O)N[C@@H](C)C(=O)N1CCC[C@H]1C(=O)N1CCC[C@H]1C(=O)N1CCC[C@H]1C(=O)N[C@@H](CO)C(=O)O)C(C)C

Molecular target: T1, human GIP receptor (human, UniProt P48546 22-466)
T1 sequence (looked up): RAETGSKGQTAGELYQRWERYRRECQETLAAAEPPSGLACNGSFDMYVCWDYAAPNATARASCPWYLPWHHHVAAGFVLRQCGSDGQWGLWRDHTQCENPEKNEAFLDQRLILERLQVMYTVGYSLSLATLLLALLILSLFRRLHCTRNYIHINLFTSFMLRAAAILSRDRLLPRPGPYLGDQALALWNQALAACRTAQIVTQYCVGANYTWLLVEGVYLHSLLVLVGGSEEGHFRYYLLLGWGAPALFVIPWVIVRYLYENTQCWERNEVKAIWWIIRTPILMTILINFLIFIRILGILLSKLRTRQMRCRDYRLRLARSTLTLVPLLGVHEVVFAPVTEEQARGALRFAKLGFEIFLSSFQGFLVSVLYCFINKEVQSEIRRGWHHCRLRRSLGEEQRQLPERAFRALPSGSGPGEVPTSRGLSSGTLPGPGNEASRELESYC
Test: cell-based or functional assay

Row | Binder | nM (Kb, Gaddum assay, cAMP) [nM] | pKb (Gaddum assay, cAMP)
1 | B1 | 0.2 | 9.7
2 | EGTFISEYSI[Aib]MEKIK([AEEA-AEEA-γGlu-C18 diacid])QQEFVEWLLAQKPSSGAPPPS-OH [AT709] | 0.24 | 9.6
3 | B2 | 0.23 | 9.6
4 | B3 | 0.26 | 9.6
5 | EGTFISEYSIAMEKIK([AEEA-AEEA-γGlu-C18 diacid])QQEFVEWLLAQKPSSGAPPPS-OH [AT710] | 0.73 | 9.1
6 | B4 | 0.28 | 9.6
7 | B5 | 0.23 | 9.6
8 | B6 | 0.39 | 9.4
